B1: antibody 58 (antibody, V domains shown)
VH: QVQLVESGGGLVQPGRSLRLSCAASGFTFDDYAMHWVRQPPGKGLEWVSGVSWNSGTIGYADSVKGRFIISRDNAKNSLYLQMNSLKAEDTALYYCAREVGGTFGVLISREGGLDYWGQGTLVTVSS
VL: SYELTQPPSVSVAPGQTARITCGGNTIGSKSVHWYQQRPGQAPVLVVYDDSDRPSGIPERFSGSNSGNTATLTISRVEAGDEADYYCQVWDSSSDRVVFGGGTKLTVL
notes: also called mAb 58
B2: antibody 318 (antibody, V domains shown)
VH: QVQLVQSGPEVKKPGTSVKVSCKASGFTLTSSAMQWVRQARGQRLEWIGWIVVGSGNTNYAQKFQERVTITRDMSTSTAYMELSSLRSEDTAVYYCAAGRGYNSDFDYWGQGTLVTVSS
VL: AIRMTQSPGTLSLSPGERATLSCRASQSVSSSYLAWYQQRPGQAPRLLIYGTSSRATGIPDRFSGSGSGTDFTLTISRLEPEDFAVYYCQQYGYSVYTFGQGTKVDIK
B3: antibody 88 (antibody, V domains shown)
VH: QLQLQESGPGLVKPSQTLSLTCTVSGGSISSGSYNWTWIRQPAGKGLEWIGRIYNSGSTNYNPSLKSRVTISVDTSKNQLSLKVRSVTAADTAVYYCARHCSGGTCYPKYYYGMDVWGQGTTVTVSS
VL: QSALTQPPSVSEAPRQRVTISCSGSSSNIGNNAVNWYQQFPGKAPKLLIYYDDLLPSGVSDRFSGSKSGTSASLAISGVQSEDEADYYCAAWDDSLNVVVFGGGTKLTVL
notes: also called mAb 88
B4: antibody 316 (antibody, V domains shown)
VH: not shown
VL: QAVLTQPPSASGSPGQSVTISCTGTSSDVGGYNYVSWYQQHPGKAPKLMIYEVSKRPSGVPDRFSGSKSGNTASLTVSGLQAEDEADYYCSSYAGSNHWVFGGGTKLTVL
B5: antibody 398 (antibody, V domains shown)
VH: QVQLVESGGGLVQPGGSLRLSCAASGFTVSSNYMTWVRQAPGKGLEWVSVIYSGGSTYYADSVKGRFTISRDNSKNTLYLQMNSLRADDTAVYYCARDSTADYDFWSGYYVGAFHIWGQGTMVTVSS
VL: QTVLTQPASVSGSPGQSITISCTGTSSDVGGYNYVSWYQQHPGKAPKLMIYEVTKRPSGVPDRFSGSKSGNTASLTVSGLQAEDEADYYCSSYAGSNNWVFGGGTKLTVL
B6: antibody 132 (antibody, V domains shown)
VH: QVQLQQWGAGLLKPSETLSLTCAVYGGSFSGYYWSWIRQPPGKGLEWIGEINHSGSTNYNPSLKSRVTISVDTSKNQFSLKLSSVTAADTAVYYCARTDYYDSIDWGQGTLVTVSS
VL: QSVLTQEPSLTVSPGGTVTLTCGSSTGAVTSGHYPYWFQQKPGQVPRTLIYDTRNKHSWTPARFSGSLLGGKAALTLSGAQPEDEAEYYCLLSSSGARVFGGGTKLTVL
B7: antibody 40 (antibody, V domains shown)
VH: QVQLVESGGGLVQPGGSLRLSCAVSGFTVSRNYMSWVRQAPGKGLEWVSLIYSGGSTFYADSVKGRFTISRDNSKNTLYLQMNSLRAEDTAVYYCARDLFHRSGYHDYWGQGTLVTVSS
VL: not shown
notes: also called mAb 40

How the values were obtained:
Assay in all cases: cell-based or functional assay
[1] = molecular target: spike protein of SARS-CoV-2 strain B.1.351 (SARS-CoV-2, UniProt P0DTC2 14-1273)
[2] = molecular target: spike protein of SARS-CoV-2 strain B.1.1.7 (SARS-CoV-2, UniProt P0DTC2 14-1273)
[3] = molecular target: spike protein of SARS-CoV-2 strain P.1 (SARS-CoV-2, UniProt P0DTC2 14-1273)
[4] = molecular target: spike protein of SARS-CoV-2 strain Victoria (SARS-CoV-2/human/AUS/VIC01/2020) (SARS-CoV-2, UniProt P0DTC2 14-1273)
[5] = molecular target: spike protein of SARS-CoV-2 strain Victoria (SARS-CoV-2/human/AUS/VIC01/2020) (SARS-CoV-2, UniProt P0DTC2 14-1273); remark: listed apart in the source
[6] = molecular target: spike protein of SARS-CoV-2 strain B.1.351 (SARS-CoV-2, UniProt P0DTC2 14-1273); remark: listed apart in the source

Row | Binder | IC50 (FRNT neutralisation) [1] | IC50 (FRNT neutralisation) [2] | IC50 (FRNT neutralisation) [3] | IC50 (FRNT neutralisation) [4] | IC50 (FRNT, live virus neutralisation) [5] | IC50 (FRNT, live virus neutralisation) [6] | FRNT50 ratio B.1.351/Victoria [1] | FRNT50 ratio B.1.1.7/Victoria [2] | FRNT50 ratio P.1/Victoria [3]
1 | B1 | 0.136 µg/mL | 0.116 µg/mL | 0.236 µg/mL | 0.041 µg/mL | – | – | – | – | –
2 | B2 | – | – | – | – | 0.029 µg/mL | 0.019 µg/mL | – | – | –
3 | B3 | > 10 µg/mL | 0.058 µg/mL | > 10 µg/mL | 0.033 µg/mL | – | – | – | – | –
4 | B4 | – | – | – | – | 0.018 µg/mL | > 10 µg/mL | – | – | –
5 | B5 | – | – | – | – | 0.091 µg/mL | > 10 µg/mL | – | – | –
6 | B6 | > 10 µg/mL | 0.337 µg/mL | > 10 µg/mL | 0.048 µg/mL | – | – | > 208 | 7 | > 208
7 | B7 | 0.738 µg/mL | 0.035 µg/mL | 0.153 µg/mL | 0.026 µg/mL | – | – | – | – | –

Source: patent publication US20240043507A1 (RQ BIOTECHNOLOGY, published 2024)
